The target in data set [1] is Chaetomium thermophilum Las1 endoribonuclease (nuclease component of RNase PNK) (Chaetomium thermophilum). Kind of data set: cryo-EM structure.
For data set [2], the target named is T1, ScRNase PNK (Las1-Grc3 complex) (Saccharomyces cerevisiae, UniProt P36146;Q07845 1-502;1-632).
T1 sequence 1: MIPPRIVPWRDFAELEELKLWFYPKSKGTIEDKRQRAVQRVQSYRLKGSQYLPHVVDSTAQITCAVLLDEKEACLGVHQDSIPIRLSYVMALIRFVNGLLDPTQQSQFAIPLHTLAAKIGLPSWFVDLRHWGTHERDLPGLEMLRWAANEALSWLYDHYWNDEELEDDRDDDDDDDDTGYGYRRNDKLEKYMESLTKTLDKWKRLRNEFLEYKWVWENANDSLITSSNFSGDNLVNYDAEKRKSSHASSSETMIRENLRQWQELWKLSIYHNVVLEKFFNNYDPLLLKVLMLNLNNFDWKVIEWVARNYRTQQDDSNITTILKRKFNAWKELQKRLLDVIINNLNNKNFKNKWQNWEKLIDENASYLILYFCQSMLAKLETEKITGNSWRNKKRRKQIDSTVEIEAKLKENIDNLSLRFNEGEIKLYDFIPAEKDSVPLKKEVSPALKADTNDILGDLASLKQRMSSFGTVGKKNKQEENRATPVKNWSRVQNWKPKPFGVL
T1 sequence 2: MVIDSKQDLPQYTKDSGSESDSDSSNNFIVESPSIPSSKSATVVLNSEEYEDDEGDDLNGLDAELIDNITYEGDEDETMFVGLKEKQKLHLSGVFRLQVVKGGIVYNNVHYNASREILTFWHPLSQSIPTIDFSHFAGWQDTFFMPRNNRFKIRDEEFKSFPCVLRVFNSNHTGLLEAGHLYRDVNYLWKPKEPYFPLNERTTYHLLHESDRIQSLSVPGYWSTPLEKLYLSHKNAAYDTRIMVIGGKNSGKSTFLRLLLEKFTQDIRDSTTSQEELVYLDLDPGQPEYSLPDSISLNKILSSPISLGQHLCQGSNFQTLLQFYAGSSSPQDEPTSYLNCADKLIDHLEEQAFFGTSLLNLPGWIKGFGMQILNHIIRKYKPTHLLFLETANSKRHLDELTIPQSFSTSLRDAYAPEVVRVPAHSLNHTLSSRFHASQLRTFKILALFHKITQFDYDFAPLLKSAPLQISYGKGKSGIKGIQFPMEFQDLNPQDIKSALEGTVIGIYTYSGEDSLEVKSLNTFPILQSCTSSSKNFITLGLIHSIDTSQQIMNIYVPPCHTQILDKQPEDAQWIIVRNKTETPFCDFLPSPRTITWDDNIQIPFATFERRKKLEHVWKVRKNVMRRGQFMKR
Kind of data set: ITC.

“Chaetomium thermophilum Las1 endoribonuclease (nuclease component of RNase PNK) (enzyme)” came in with a stoichiometry N in data set [1] of 2. Regarding ACGUACGCGGAAUACUUCGAA (ssRNA) [SS-RNA], the binding result in data set [2] is given as “binds”.

B1: SC-ITS2-cleaved-RNA (SC-ITS2-3-RNA annealed to SC-ITS2-5-RNA) (dsRNA)
RNA 1: GUCGUUUUA
RNA 2: GGUUUUACCAACUGCGGC
Consider B1, for which the binding result in data set [2] is recorded as “binds”.

The values above are taken from publication PMC6733591.
